How the values were obtained:
pulmonary fibrosis model = assay: Efficacy on bleomycin-induced pulmonary fibrosis model; assay type: in vivo; parameters: body weight of the animals (Mean ± SEM) / Weight of the left lung (Mean ± SEM) / Volume of the left lung (Mean ± SEM): unit not given here; settings: for Volume of the left lung (Mean ± SEM) / Weight of the left lung (Mean ± SEM): after formalin perfusion, day 14
Procedure: Animals were anesthetized by inhaling isoflurane. After confirmation of anesthesia, the animals were sterilized, then the neck skin was cut, the muscles were bluntly separated to expose the trachea, and bleomycin (dosage: 3 mg/kg, volume: 1.0 mL/kg) was directly injected between the tracheal rings. After the operation, the animals were placed in a 37° C. electric blanket to keep warm until the animals were completely awakened. After confirming that they were able to eat and drink freely, the animals were returned to the cage for normal feeding.
In this experiment, there were four groups, i.e., model group (experimental group-1, […]), PFD group (experimental group-2, n=6), Slit2D2(C386S)-HSA-1 mg/kg (experimental group-3, n=6), and Slit2D2(C386S)-HSA-5 mg/kg (experimental group-4, n=6).
In this experiment, the positive control drug (PFD) was given to rats by gavage twice a day, which was started on the day of modeling, and administered continuously for 14 days. The test compound (Slit2D2(C386S)-HSA) was given intravenously once every other day, which was started on the day of modeling, and a total of seven doses were administered (as shown in table 6).
Physiological observation of the experimental animals: changes in body weight of the animals were measured (body weight was measured once a day before administration); and the death rate of animals during the test period was monitored.
Animals were euthanized 24 hours after the last administration on the 14th day of modeling. After confirming the death of the animals, the left lung was fixed by intrapulmonary infusion of formalin, and the volume and weight of the left lung after perfusion were measured for relevant examination of the pulmonary pathology.
General pathological examination: After the perfusion with an equal amount of formalin in the left lung, the wet weight of left lung after perfusion was weighed/recorded with a micro-balance; and the volume of left lung after perfusion was measured and recorded using a micro-measuring cup.
Pathological examination of lung tissue: The whole lung was dehydrated. Lung paraffin sections were made with paraffin blocks. […] HE staining and Masson Trichrome staining were performed according to pathological staining SOP, and whole section scanning was performed using a Digital Pathscope slice scanner. Pathological analysis and scoring of changes in damage and inflammation of terminal bronchioles and accompanying small pulmonary artery at the periphery of the lesions (as shown in Tables 7 and 8 and FIG. 7) were performed using the HE-stained sections. Lesion area calculation, lesion pathology analysis and scoring were performed with the Masson Trichrome-stained sections (as shown in Table 9 and FIG. 8).
The mean±sd or mean±sem was calculated using the graphpad prism software, and the significant difference test was performed using t-test, one-way ANOVA and two-way ANOVA test. A significant difference between the two groups was considered at p<0.05.

Robo1 protein = biological target: T1, Robo1 protein (Homo sapiens, UniProt Q9Y6N7); assay: Affinity of the fusion protein to receptor Robo1 determined by SPR; assay type: binding; settings: Robo1 bound to CM5 chip
T1 construct: purchased ORIGEN TP327713
T1 sequence (Q9Y6N7 26-1651): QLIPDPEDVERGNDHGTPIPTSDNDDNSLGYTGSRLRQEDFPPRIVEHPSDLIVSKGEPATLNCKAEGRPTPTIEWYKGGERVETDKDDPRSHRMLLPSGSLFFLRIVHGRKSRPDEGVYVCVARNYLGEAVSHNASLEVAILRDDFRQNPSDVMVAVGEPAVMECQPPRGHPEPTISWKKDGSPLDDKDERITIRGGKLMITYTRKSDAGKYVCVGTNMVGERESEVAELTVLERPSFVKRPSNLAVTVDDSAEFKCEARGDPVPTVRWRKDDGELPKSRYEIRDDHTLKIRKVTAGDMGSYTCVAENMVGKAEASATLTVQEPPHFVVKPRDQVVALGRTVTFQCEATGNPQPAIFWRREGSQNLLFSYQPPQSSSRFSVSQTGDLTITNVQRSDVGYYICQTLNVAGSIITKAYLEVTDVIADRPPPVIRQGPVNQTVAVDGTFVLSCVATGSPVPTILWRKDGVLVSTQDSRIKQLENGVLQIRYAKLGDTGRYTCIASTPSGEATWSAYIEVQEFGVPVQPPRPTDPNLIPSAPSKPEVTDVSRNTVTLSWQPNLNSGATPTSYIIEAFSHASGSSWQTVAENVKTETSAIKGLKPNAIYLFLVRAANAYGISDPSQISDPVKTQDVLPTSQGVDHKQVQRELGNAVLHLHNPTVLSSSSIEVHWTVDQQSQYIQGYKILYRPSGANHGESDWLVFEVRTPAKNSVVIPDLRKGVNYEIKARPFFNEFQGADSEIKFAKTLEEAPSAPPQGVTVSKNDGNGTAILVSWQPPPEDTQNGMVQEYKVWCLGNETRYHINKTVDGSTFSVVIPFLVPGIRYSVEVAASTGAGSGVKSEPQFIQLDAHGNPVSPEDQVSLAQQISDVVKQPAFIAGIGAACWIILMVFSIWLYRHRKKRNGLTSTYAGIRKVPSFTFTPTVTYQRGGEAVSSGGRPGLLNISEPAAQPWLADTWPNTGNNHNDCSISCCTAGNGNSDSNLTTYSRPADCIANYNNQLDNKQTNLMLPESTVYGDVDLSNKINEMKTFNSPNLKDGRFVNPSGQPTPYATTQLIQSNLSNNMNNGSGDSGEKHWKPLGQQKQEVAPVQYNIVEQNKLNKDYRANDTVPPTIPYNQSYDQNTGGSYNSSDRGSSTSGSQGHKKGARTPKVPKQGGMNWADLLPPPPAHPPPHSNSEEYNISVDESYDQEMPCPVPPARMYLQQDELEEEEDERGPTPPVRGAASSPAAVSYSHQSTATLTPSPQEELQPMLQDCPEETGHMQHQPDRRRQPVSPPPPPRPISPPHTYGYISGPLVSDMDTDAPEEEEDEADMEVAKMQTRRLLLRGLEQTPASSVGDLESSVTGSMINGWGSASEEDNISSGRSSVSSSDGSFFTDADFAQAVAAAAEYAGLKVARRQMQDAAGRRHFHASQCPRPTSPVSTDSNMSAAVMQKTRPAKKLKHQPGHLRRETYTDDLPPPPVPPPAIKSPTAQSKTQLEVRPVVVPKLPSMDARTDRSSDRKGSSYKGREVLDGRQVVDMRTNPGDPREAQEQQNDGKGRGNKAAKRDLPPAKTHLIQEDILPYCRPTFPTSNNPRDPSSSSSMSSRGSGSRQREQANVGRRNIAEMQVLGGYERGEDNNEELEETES
Procedure: The affinity constant between the protein and Robo1 protein was detected by SPR (Surface Plasmon resonance BIAcore 200) method. The Robo1 protein (ORIGEN, Art. No.: TP327713) was bound to a CM5 chip, and the interaction between the fusion protein Slit2D2(C386S)-HSA (prepared in Example 1), Slit2D2-HSA (as disclosed in Patent Application PCT/CN2015/092079), and the receptor protein Robo1 were analyzed. Kinetic measurements were performed according to the method referred by Canziani et al. (2004, Anal. Biochem. 325: 301-307). Furthermore, the affinity of the Slit2N protein (Slit2N is a protein having a molecular weight of about 120 kDa at the N-terminus of the Slit2 protein) to Robo1 protein was also determined by the same method.

## Slit2D2(C386S)-HSA: Fusion protein of the Slit2 D2 domain with C386S mutation linked to human serum albumin; amino acid sequence SEQ ID NO: 3
Pulmonary fibrosis model; 5 mg/kg dose group, iv Q2D
  inhibiting pulmonary fibrosis, compared with positive compound (PFD): superior to the positive compound (PFD)
Pulmonary fibrosis model; 1mpk (BID)
  Volume of the left lung (Mean ± SEM): 1.27 ± 0.02
  Weight of the left lung (Mean ± SEM): 1.20 ± 0.03
Pulmonary fibrosis model; 1mpk Q2D iv, Day 1
  body weight of the animals (Mean ± SEM): 273.8 ± 3.1
Pulmonary fibrosis model; 1mpk Q2D iv, Day 3
  body weight of the animals (Mean ± SEM): 255.2 ± 3.2
Pulmonary fibrosis model; 1mpk Q2D iv, Day 5
  body weight of the animals (Mean ± SEM): 262.8 ± 4.7
Pulmonary fibrosis model; 1mpk Q2D iv, Day 7
  body weight of the animals (Mean ± SEM): 276.7 ± 5.4
Pulmonary fibrosis model; 1mpk Q2D iv, Day 9
  body weight of the animals (Mean ± SEM): 290.7 ± 6.3
Pulmonary fibrosis model; 1mpk Q2D iv, Day 11
  body weight of the animals (Mean ± SEM): 302.7 ± 6.9
Pulmonary fibrosis model; 1mpk Q2D iv, Day 13
  body weight of the animals (Mean ± SEM): 310.3 ± 7.8
Pulmonary fibrosis model; 5mpk (BID)
  Volume of the left lung (Mean ± SEM): 1.32 ± 0.03
  Weight of the left lung (Mean ± SEM): 1.31 ± 0.07
Pulmonary fibrosis model; 5mpk Q2D iv, Day 1
  body weight of the animals (Mean ± SEM): 272.7 ± 1.8
Pulmonary fibrosis model; 5mpk Q2D iv, Day 3
  body weight of the animals (Mean ± SEM): 251.8 ± 2.3
Pulmonary fibrosis model; 5mpk Q2D iv, Day 5
  body weight of the animals (Mean ± SEM): 245.0 ± 5.0
Pulmonary fibrosis model; 5mpk Q2D iv, Day 7
  body weight of the animals (Mean ± SEM): 258.3 ± 4.4
Pulmonary fibrosis model; 5mpk Q2D iv, Day 9
  body weight of the animals (Mean ± SEM): 272.5 ± 5.0
Pulmonary fibrosis model; 5mpk Q2D iv, Day 11
  body weight of the animals (Mean ± SEM): 284.3 ± 5.9
Pulmonary fibrosis model; 5mpk Q2D iv, Day 13
  body weight of the animals (Mean ± SEM): 292.2 ± 5.6
Pulmonary fibrosis model; intravenous, every other day for 2 weeks, 1 and 5 mg/kg
  inhibition on the progression of pulmonary fibrosis: significant inhibition on the progression of pulmonary fibrosis, with a dose-dependent trend
Robo1 protein
  Ka: 864700 M⁻¹ s⁻¹

— US10947296B2, “Fusion protein Slit2D2(C386S)-HSA and use thereof in treatment of fibrotic diseases” (SUZHOU THINKING POWER BIOTECHNOLOGY CO., LTD., priority 2016, dated 2021)
